We go through five molecules from paper PMC11098434, “The effect of TG2-inhibitory monoclonal antibody zampilimab on tissue fibrosis in human in vitro and primate in vivo models of chronic kidney disease” (PLOS ONE, 2024).

Assay [1] addresses zampilimab (human). Nature of the assay: SPR; as the SPR with calcium (antibody captured by anti-human Fc, TG2 flowed over) but in the absence of calcium (-Ca2+); buffer of this condition not detailed. (In general: In SPR one partner is held on a chip, and binding of the other changes the refractive index at the surface.)
Assay [2] has as its target zampilimab (human). Description: SPR; BIAcore T200; test antibody captured (~100-200 RU) by goat anti-human IgG Fc F(ab')2 immobilised on a CM5 chip; TG2 titrated over it at 100 nM to 6.25 nM, 600 s association, up to 3200 s dissociation; 10 mM HEPES pH 7.4, 0.15 M NaCl, 0.005% Surfactant P20, 2 mM CaCl2 (+Ca2+); 1:1 fit.
The target of assay [3] is cynomolgus monkey transglutaminase 2 (cynomolgus monkey).
The target of assay [4] is T1, human transglutaminase 2 (Homo sapiens, UniProt P21980). Nature of the assay: cell-based or functional assay.
T1 sequence (P21980 whole entry): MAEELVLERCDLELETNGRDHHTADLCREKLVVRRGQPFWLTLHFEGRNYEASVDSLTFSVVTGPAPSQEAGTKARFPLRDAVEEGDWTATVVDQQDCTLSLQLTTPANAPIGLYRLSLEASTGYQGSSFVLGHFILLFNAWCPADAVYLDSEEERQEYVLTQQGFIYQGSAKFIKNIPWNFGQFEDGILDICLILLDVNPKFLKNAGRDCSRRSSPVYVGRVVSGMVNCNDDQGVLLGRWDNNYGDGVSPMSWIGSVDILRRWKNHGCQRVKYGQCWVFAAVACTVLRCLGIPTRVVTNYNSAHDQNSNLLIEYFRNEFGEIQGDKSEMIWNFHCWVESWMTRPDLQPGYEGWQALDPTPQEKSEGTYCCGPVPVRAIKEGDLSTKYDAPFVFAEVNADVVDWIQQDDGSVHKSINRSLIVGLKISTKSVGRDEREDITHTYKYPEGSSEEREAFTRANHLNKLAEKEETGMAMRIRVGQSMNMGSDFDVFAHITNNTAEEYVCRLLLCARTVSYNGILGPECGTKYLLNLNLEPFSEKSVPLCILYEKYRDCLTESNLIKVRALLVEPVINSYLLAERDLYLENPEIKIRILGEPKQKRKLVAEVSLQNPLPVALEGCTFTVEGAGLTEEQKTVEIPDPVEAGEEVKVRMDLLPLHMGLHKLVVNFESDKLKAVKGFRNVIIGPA
The target in assay [5] is T1, human transglutaminase 2. Description: cell-based or functional assay. The source holds these as a separate data set.
In assay [6] the target is rabbit transglutaminase 2 (Oryctolagus cuniculus (rabbit), UniProt A0A5F9DRZ3). Nature of the assay: cell-based or functional assay.
The target in a further assay is T2, TG7 (Homo sapiens (assumed), UniProt Q96PF1).
T2 construct: transglutaminase family member TG7; also called transglutaminase 7
T2 sequence (Q96PF1 whole entry): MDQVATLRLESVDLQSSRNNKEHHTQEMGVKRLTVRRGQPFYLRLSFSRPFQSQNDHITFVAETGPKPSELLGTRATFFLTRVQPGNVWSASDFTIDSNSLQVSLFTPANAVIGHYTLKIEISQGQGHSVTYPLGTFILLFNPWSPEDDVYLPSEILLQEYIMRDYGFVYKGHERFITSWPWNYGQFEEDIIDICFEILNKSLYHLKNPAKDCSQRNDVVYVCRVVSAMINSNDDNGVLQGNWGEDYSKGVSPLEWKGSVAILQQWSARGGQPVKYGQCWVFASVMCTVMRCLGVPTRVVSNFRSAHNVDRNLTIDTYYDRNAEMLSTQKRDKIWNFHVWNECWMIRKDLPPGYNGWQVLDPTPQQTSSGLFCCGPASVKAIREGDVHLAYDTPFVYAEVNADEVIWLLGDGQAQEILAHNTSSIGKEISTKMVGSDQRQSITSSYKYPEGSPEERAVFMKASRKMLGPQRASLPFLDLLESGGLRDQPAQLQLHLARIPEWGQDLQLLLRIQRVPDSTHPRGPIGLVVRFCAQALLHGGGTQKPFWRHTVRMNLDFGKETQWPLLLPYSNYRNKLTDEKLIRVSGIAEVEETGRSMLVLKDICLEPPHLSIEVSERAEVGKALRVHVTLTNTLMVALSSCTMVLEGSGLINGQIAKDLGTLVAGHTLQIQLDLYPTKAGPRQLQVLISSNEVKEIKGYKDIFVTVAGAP
Description: ELISA; ELISA of the humanized antibodies on TG2 and other TG family members; antibody up to 100 nM; format not described.

In assay [7] the target is T3, TG2 (as used in the ELISA of the humanized antibodies) (Homo sapiens (assumed), UniProt P21980).
T3 construct: transglutaminase 2 (TG2); also called transglutaminase 2
T3 sequence (P21980 whole entry): as the sequence (P21980 whole entry) above
The assay is described as above.

The target of the next assay is T4, TG1 (Homo sapiens (assumed), UniProt P22735).
T4 construct: transglutaminase family member TG1; also called transglutaminase 1
T4 sequence (P22735 whole entry): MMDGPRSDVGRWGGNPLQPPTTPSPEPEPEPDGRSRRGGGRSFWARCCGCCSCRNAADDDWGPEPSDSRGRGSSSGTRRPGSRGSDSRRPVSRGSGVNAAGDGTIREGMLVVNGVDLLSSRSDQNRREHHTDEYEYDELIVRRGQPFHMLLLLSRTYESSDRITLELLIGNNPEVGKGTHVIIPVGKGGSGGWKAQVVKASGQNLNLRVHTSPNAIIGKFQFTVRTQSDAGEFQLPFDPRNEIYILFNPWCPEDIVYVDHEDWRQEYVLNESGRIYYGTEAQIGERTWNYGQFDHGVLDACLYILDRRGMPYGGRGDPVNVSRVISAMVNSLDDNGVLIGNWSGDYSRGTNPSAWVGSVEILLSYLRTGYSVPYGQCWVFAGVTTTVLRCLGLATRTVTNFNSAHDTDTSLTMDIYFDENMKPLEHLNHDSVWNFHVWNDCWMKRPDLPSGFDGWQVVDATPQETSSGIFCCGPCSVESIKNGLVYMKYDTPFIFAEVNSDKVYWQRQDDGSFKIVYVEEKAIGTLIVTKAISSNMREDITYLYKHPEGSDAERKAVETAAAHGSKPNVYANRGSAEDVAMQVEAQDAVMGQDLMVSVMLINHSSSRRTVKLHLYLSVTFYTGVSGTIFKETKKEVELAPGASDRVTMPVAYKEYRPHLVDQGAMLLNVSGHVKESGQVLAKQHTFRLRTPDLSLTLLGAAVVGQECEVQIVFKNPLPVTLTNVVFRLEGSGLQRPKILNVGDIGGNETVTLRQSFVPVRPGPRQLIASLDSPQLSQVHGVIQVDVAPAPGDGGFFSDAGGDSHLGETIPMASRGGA
The assay is described as above.

Another assay concerns the target T5, TG3 (Homo sapiens (assumed), UniProt Q08188).
T5 construct: transglutaminase family member TG3; also called transglutaminase 3
The assay is described as above.

The next assay addresses T6, TG5 (Homo sapiens (assumed), UniProt O43548).
T6 construct: transglutaminase family member TG5; also called transglutaminase 5
Described as above.

Assay [8] has as its target T1, human transglutaminase 2. Nature of the assay: SPR; as the SPR with calcium (antibody captured by anti-human Fc, TG2 flowed over) but in the absence of calcium (-Ca2+); buffer of this condition not detailed. The settings on record: both partners purified.
For assay [9], the target named is T1, human transglutaminase 2. Nature of the assay: SPR; BIAcore T200; test antibody captured (~100-200 RU) by goat anti-human IgG Fc F(ab')2 immobilised on a CM5 chip; TG2 titrated over it at 100 nM to 6.25 nM, 600 s association, up to 3200 s dissociation; 10 mM HEPES pH 7.4, 0.15 M NaCl, 0.005% Surfactant P20, 2 mM CaCl2 (+Ca2+); 1:1 fit. The note with it: both partners purified.

The target in assay [10] is rabbit transglutaminase 2 (rabbit).
For assay [11], the target named is T1, human transglutaminase 2.

T5 sequence (Q08188 whole entry): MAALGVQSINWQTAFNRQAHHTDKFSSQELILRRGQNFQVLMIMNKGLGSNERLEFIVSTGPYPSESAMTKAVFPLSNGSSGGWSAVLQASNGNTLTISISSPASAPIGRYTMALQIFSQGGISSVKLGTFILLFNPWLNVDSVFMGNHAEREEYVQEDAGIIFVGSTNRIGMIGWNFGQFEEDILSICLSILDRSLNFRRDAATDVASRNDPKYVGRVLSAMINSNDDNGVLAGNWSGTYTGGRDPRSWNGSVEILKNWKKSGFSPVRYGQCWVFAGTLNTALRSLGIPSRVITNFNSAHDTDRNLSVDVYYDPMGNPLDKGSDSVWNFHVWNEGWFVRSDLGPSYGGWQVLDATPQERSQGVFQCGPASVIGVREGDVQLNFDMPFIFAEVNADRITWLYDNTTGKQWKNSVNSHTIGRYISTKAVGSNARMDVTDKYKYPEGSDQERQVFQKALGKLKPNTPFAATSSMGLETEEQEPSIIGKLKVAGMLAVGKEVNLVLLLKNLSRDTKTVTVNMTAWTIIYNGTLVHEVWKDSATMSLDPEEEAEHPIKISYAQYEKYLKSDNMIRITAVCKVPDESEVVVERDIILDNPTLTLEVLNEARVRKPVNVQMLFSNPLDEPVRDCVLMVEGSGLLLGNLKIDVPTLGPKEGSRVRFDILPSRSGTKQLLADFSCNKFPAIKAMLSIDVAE
T6 sequence (O43548 whole entry): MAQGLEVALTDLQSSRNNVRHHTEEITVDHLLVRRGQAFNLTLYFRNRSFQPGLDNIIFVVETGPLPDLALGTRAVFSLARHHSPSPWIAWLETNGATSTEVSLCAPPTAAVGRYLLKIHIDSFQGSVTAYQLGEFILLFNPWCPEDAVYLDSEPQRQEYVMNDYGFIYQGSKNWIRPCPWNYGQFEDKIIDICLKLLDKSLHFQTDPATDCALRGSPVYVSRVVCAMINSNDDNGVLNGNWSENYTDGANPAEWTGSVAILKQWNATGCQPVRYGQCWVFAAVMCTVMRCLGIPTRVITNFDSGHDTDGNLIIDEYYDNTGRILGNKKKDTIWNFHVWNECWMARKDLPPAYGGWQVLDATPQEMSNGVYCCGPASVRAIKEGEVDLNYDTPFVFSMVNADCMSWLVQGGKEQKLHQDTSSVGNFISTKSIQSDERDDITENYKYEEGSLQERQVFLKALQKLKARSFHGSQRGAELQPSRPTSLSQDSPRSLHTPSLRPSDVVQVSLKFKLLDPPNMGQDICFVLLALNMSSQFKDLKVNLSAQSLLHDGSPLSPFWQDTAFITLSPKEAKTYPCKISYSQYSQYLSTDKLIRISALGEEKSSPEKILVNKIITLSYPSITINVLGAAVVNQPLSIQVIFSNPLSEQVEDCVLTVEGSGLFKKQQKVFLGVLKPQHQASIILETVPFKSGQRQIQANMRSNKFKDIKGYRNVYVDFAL

For orientation: Kd means a measure of binding affinity in units of concentration. In the case of “cynomolgus monkey transglutaminase 2 (enzyme)”, the Kd was below 0.05 nM in the assay with zampilimab (human) [1] and below 0.037 nM with zampilimab (human) [2].

B1: zampilimab (antibody, V domains shown)
VH: EVQLLESGGGLVQPGGSLRLSCAASGFTLSTHAMSWVRQAPGKGLEWVATISSGGRSTYYPDSVKGRFTISRDNSKNTLYLQMNSLRAEDTAVYFCARLISTYWGQGTLVTVSS
VL: DITMTQSPSSLSASVGDRVTITCKASQDINSYLTWFQQKPGKAPKILIYLVNRLVDGVPSRFSGSGSGQDYALTISSLQPEDFATYYCLQYDDFPYTFGQGTKVEIK
notes: humanized DC1 VH; DC1 CDRs grafted on the human framework AF062260 with back mutation of the 5 Å Proximity residues; human heavy chain constant region; humanized DC1 VK; DC1 CDRs grafted on the human framework AF193851 with back mutation of the 5 Å Proximity residues; The discussion speaks of zampilimab as an IgG4P antibody in the monkey study; also called hDC1; UCB7858; source: Expi293 cells, …
As usually defined, the EC50 is the concentration that produces a half-maximal response. Turning to B1, the IC50 of inhibition of TG2 activity (KxD assay on recombinant protein by the text; biotin cadaverine incorporation by the table's footnote) was determined as 0.22 nM in [3], 0.25 nM with human transglutaminase 2 [5] and 103 nM in assay [6]. For the same molecule, the “IC50 of inhibition of extracellular TG activity (biotin cadaverine incorporation) in primary human RPTEC induced with TGF-β1, four independent studies” value with human transglutaminase 2 [4] worked out at 119 nM. Besides, the binding result with TG7, with TG1, with TG3 and in the assay with TG5 was “no binding (tested: 100 nM)” throughout. Also, in [7], the EC50 is around 0.02 nM. The Kd in the assay with human transglutaminase 2 [8] is below 0.107 nM; with human transglutaminase 2 [9], below 0.05 nM.

B2: hBB7 (antibody, V domains shown)
VH: EVQLLESGGGLVQPGGSLRLSCAASGIIFSSSAMSWVRQAPGKGLEWVATISSGGRSTYYPDSVKGRFTVSRDSSKNTLYLQMNSLRAEDTAVYYCAKLISPYWGQGTLVTVSS
VL: DIKMTQSPSSLSASVGDRVTITCKASQDINSYLTWFQQKPGKAPKTLIYLTNRLMDGVPSRFSGSGSGQEFLLTISSLQPEDFATYYCLQYVDFPYTFGQGTKVEIK
notes: humanized BB7 VH; BB7 CDRs grafted on the human framework AF062260 with back mutation of the 5 Å Proximity residues; human heavy chain constant region; humanized BB7 VK; BB7 CDRs grafted on the human framework AF193851 with back mutation of the 5 Å Proximity residues; also called humanized BB7; source: Expi293 cells, co-transfected heavy and kappa light chain vectors, purified from supernatant …
As to B2, the IC50 of inhibition of TG2 activity (KxD assay on recombinant protein by the text; biotin cadaverine incorporation by the table's footnote) in assay [3] worked out at 0.25 nM; in [10], 6.59 nM; in the assay with human transglutaminase 2 [5], 0.28 nM. The binding result with TG7, with TG1, with TG3 and with TG5 was “no binding (tested: 100 nM)” throughout. This molecule returned an EC50 in [7] of around 0.02 nM. Besides, in the assay with human transglutaminase 2 [9], the Kd is below 0.06 nM.

B3: mBB7 (antibody, V domains shown)
VH: AVQLVESGGGLVKPGGSLKLSCAASGIIFSSSAMSWVRQTPEKRLEWVATISSGGRSTYYPDSVKGRFTVSRDSAKNTLYLQMDSLRSEDTAIYYCAKLISPYWGQGTTLTVSS
VL: AIKMTQSPSSMYASLGERVIITCKASQDINSYLTWFQQKPGKSPKTLIYLTNRLMDGVPSRFSGSGSGQEFLLTISGLEHEDMGIYYCLQYVDFPYTFGGGTKLEIK
For B3, the binding result with human transglutaminase 2 [11] is “binds”.

B4: mDC1 (antibody, V domains shown)
VH: EVQLVESGGGLVKPGGSLKLSCAASGFTLSTHAMSWVRQTPEKRLEWVATISSGGRSTYYPDSVKGRFTISRDNVKNTLYLQLSSLRSEDTAVYFCARLISTYWGQGTTLTVSS
VL: DITMTQSPSSIYASLGERVTITCKASQDINSYLTWFQQKPGKSPKILIYLVNRLVDGVPSRFSGSGSGQDYALTISSLEYEDMGIYYCLQYDDFPYTFGGGTKLEIK
Regarding B4, the binding result with human transglutaminase 2 [11] is recorded as “binds”.
